Target: T1, CAV1–mCherry (caveolin-1 fused to mCherry), Q03135
T1 chain: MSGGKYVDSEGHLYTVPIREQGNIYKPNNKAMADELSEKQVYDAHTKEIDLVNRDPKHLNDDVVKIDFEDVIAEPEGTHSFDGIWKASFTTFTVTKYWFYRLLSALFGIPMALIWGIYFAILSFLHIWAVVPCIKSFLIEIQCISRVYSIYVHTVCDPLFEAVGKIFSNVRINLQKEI
Experiment: FRET or BRET
Conditions: remark: other sources report otherwise

B1: CAV1–mCherry (caveolin-1 fused to mCherry), Q03135 1-178 (natural protein)
chain: MSGGKYVDSEGHLYTVPIREQGNIYKPNNKAMADELSEKQVYDAHTKEIDLVNRDPKHLNDDVVKIDFEDVIAEPEGTHSFDGIWKASFTTFTVTKYWFYRLLSALFGIPMALIWGIYFAILSFLHIWAVVPCIKSFLIEIQCISRVYSIYVHTVCDPLFEAVGKIFSNVRINLQKEI
  FRET efficiency: 48%

From paper PMC3364743
